Experimental findings from PMC10792529 (Proteins, 2023) are described below.

As usually defined, the stoichiometry N is a count of units in the complex or per binding partner.

The target in the assay is wild-type Ralstonia solanacearum Isocyanide Hydratase (Ralstonia solanacearum). The assay is described as follows: crystal structure.

As to “wild-type Ralstonia solanacearum Isocyanide Hydratase (enzyme)”, the stoichiometry N is 2.
